The values that follow are results of earlier work, collected in publication PMC3408481.

The target in one data set is VIP (Homo sapiens) (UniProt P01282).
The target in a further data set is PACAP (Homo sapiens) (UniProt P18509).
UniProt P18509, sequence (P18509 82-129): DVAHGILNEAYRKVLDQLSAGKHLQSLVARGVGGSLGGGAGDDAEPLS

UniProt P01282, sequence (P01282 125-152): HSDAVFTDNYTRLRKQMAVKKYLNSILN

As to PAC1 receptor (from UniProt P41586), the Kd (as a rule, the constant that tells how readily two partners part at equilibrium) with VIP (Homo sapiens) is 500 nM; with PACAP (Homo sapiens) it was 0.5 nM.
